One block for each substance: values may come before it.
Columns and labels:
[1] = biological target: human leukocyte IFN; assay: cell-based or functional assay
[2] = biological target: IFNα2a (human) (UniProt P01563); assay: cell-based or functional assay

neutralization of overexpression of ISG15, USP18 and IFIT2 in keratinocytes stimulated with 150 I.U./mL leukocyte IFN [1]: 70 to 100%
HERC5 gene expression (TAQMAN, Average) in whole blood of donor 107 with 100 IU IFNα2a + MEDI-545; same donor VEH 1.00, IFN alone 41.12 (relative expression (Average)) [2]: 6.29
HERC5 gene expression (TAQMAN, Average) in whole blood of donor 163 with 100 IU IFNα2a + MEDI-545; same donor VEH 1.05, IFN alone 75.81 (relative expression (Average)) [2]: 7.83
HERC5 gene expression (TAQMAN, Average) in whole blood of donor 175 with 100 IU IFNα2a + MEDI-545; same donor VEH 1.19, IFN alone 74.58 (relative expression (Average)) [2]: 6.89
IFN α2a-induced IFIT1 gene expression in whole blood (TAQMAN), sample 107 IFN + 545 (107 IFN 80.21; 107 VEH 1.00) (relative expression (Average)) [2]: 13.1
IFN α2a-induced IFIT1 gene expression in whole blood (TAQMAN), sample 163 IFN + 545 (163 IFN 51.65; 163 VEH 0.92) (relative expression (Average)) [2]: 7.6
IFN α2a-induced IFIT1 gene expression in whole blood (TAQMAN), sample 175 IFN + 545 (175 IFN 82.98; 175 VEH 1.47) (relative expression (Average)) [2]: 8.4
IFN α2a-induced IFIT3 gene expression in whole blood (TAQMAN), sample 107 IFN + 545 (107 IFN 38.43; 107 VEH 1.00) (relative expression (Average)) [2]: 6.78
IFN α2a-induced IFIT3 gene expression in whole blood (TAQMAN), sample 163 IFN + 545 (163 IFN 25.94; 163 VEH 0.62) (relative expression (Average)) [2]: 4.58
IFN α2a-induced IFIT3 gene expression in whole blood (TAQMAN), sample 175 IFN + 545 (175 IFN 35.02; 175 VEH 1.32) (relative expression (Average)) [2]: 5.28
IFN α2a-induced IL6ST gene expression in whole blood (TAQMAN), sample 107 IFN + 545 (107 IFN 3.54; 107 VEH 1.00) (relative expression (Average)) [2]: 2.62
IFN α2a-induced IL6ST gene expression in whole blood (TAQMAN), sample 163 IFN + 545 (163 IFN 7.69; 163 VEH 2.50) (relative expression (Average)) [2]: 4.18
IFN α2a-induced IL6ST gene expression in whole blood (TAQMAN), sample 175 IFN + 545 (175 IFN 7.62; 175 VEH 1.37) (relative expression (Average)) [2]: 2.95
IFN α2a-induced IRF7 gene expression in whole blood (TAQMAN), sample 107 IFN + 545 (107 IFN 18.53; 107 VEH 1.00) (relative expression (Average)) [2]: 3.42
IFN α2a-induced IRF7 gene expression in whole blood (TAQMAN), sample 163 IFN + 545 (163 IFN 17.16; 163 VEH 0.91) (relative expression (Average)) [2]: 2.92
IFN α2a-induced IRF7 gene expression in whole blood (TAQMAN), sample 175 IFN + 545 (175 IFN 24.65; 175 VEH 1.25) (relative expression (Average)) [2]: 2.43
IFN α2a-induced LY6E gene expression in whole blood (TAQMAN), sample 107 IFN + 545 (107 IFN 19.09; 107 VEH 1.00) (relative expression (Average)) [2]: 3.5
IFN α2a-induced LY6E gene expression in whole blood (TAQMAN), sample 163 IFN + 545 (163 IFN 13.52; 163 VEH 1.02) (relative expression (Average)) [2]: 4.8
IFN α2a-induced LY6E gene expression in whole blood (TAQMAN), sample 175 IFN + 545 (175 IFN 19.32; 175 VEH 1.61) (relative expression (Average)) [2]: 3.74
IFN α2a-induced MARCKS gene expression in whole blood (TAQMAN), sample 163 IFN + 545 (163 IFN 2.59; 163 VEH 0.56) (relative expression (Average)) [2]: 1.55
IFN α2a-induced MARCKS gene expression in whole blood (TAQMAN), sample 175 IFN + 545 (175 IFN 2.59; 175 VEH 0.41) (relative expression (Average)) [2]: 0.55
IFN α2a-induced RAB8B gene expression in whole blood (TAQMAN), sample 163 IFN + 545 (163 IFN 2.20; 163 VEH 0.70) (relative expression (Average)) [2]: 1.18
IFN α2a-induced RAB8B gene expression in whole blood (TAQMAN), sample 175 IFN + 545 (175 IFN 2.63; 175 VEH 0.64) (relative expression (Average)) [2]: 1.15
OAS1 gene expression (TAQMAN, Average) in whole blood of donor 107 with 100 IU IFNα2a + MEDI-545; same donor VEH 1.00, IFN alone 15.11 (relative expression (Average)) [2]: 3.45
OAS1 gene expression (TAQMAN, Average) in whole blood of donor 163 with 100 IU IFNα2a + MEDI-545; same donor VEH 0.77, IFN alone 14.19 (relative expression (Average)) [2]: 3.05
OAS1 gene expression (TAQMAN, Average) in whole blood of donor 175 with 100 IU IFNα2a + MEDI-545; same donor VEH 1.62, IFN alone 22.09 (relative expression (Average)) [2]: 4.04
OAS3 gene expression (TAQMAN, Average) in whole blood of donor 107 with 100 IU IFNα2a + MEDI-545; same donor VEH 1.00, IFN alone 49.04 (relative expression (Average)) [2]: 7.03
OAS3 gene expression (TAQMAN, Average) in whole blood of donor 163 with 100 IU IFNα2a + MEDI-545; same donor VEH 0.49, IFN alone 42.01 (relative expression (Average)) [2]: 14.6
OAS3 gene expression (TAQMAN, Average) in whole blood of donor 175 with 100 IU IFNα2a + MEDI-545; same donor VEH 1.27, IFN alone 37.87 (relative expression (Average)) [2]: 3.92
RSAD2 gene expression (TAQMAN, Average) in whole blood of donor 107 with 100 IU IFNα2a + MEDI-545; same donor VEH 1.00, IFN alone 109.64 (relative expression (Average)) [2]: 9.88
RSAD2 gene expression (TAQMAN, Average) in whole blood of donor 163 with 100 IU IFNα2a + MEDI-545; same donor VEH 0.56, IFN alone 71.47 (relative expression (Average)) [2]: 4.39
RSAD2 gene expression (TAQMAN, Average) in whole blood of donor 175 with 100 IU IFNα2a + MEDI-545; same donor VEH 1.88, IFN alone 126.27 (relative expression (Average)) [2]: 8.43
Substance: MEDI-545 (antibody)

HERC5 gene expression (TAQMAN, Average) in whole blood of donor 107 with 100 IU IFNα2a + R347 control Ab; same donor VEH 1.00, IFN alone 41.12 (relative expression (Average)) [2]: 55
HERC5 gene expression (TAQMAN, Average) in whole blood of donor 163 with 100 IU IFNα2a + R347 control Ab; same donor VEH 1.05, IFN alone 75.81 (relative expression (Average)) [2]: 95.4
HERC5 gene expression (TAQMAN, Average) in whole blood of donor 175 with 100 IU IFNα2a + R347 control Ab; same donor VEH 1.19, IFN alone 74.58 (relative expression (Average)) [2]: 98.2
IFN α2a-induced IFIT1 gene expression in whole blood (TAQMAN), sample 107 IFN + R347 (107 IFN 80.21; 107 VEH 1.00) (relative expression (Average)) [2]: 86.4
IFN α2a-induced IFIT1 gene expression in whole blood (TAQMAN), sample 163 IFN + R3437 (163 IFN 51.65; 163 VEH 0.92) (relative expression (Average)) [2]: 86.6
IFN α2a-induced IFIT3 gene expression in whole blood (TAQMAN), sample 107 IFN + R347 (107 IFN 38.43; 107 VEH 1.00) (relative expression (Average)) [2]: 42.6
IFN α2a-induced IFIT3 gene expression in whole blood (TAQMAN), sample 163 IFN + R3437 (163 IFN 25.94; 163 VEH 0.62) (relative expression (Average)) [2]: 44.8
IFN α2a-induced IFIT3 gene expression in whole blood (TAQMAN), sample 175 IFN + R347 (175 IFN 35.02; 175 VEH 1.32) (relative expression (Average)) [2]: 29.7
IFN α2a-induced IL6ST gene expression in whole blood (TAQMAN), sample 107 IFN + R347 (107 IFN 3.54; 107 VEH 1.00) (relative expression (Average)) [2]: 8.19
IFN α2a-induced IL6ST gene expression in whole blood (TAQMAN), sample 163 IFN + R3437 (163 IFN 7.69; 163 VEH 2.50) (relative expression (Average)) [2]: 13.2
IFN α2a-induced IL6ST gene expression in whole blood (TAQMAN), sample 175 IFN + R347 (175 IFN 7.62; 175 VEH 1.37) (relative expression (Average)) [2]: 23.9
IFN α2a-induced IRF7 gene expression in whole blood (TAQMAN), sample 107 IFN + R347 (107 IFN 18.53; 107 VEH 1.00) (relative expression (Average)) [2]: 19.5
IFN α2a-induced IRF7 gene expression in whole blood (TAQMAN), sample 163 IFN + R3437 (163 IFN 17.16; 163 VEH 0.91) (relative expression (Average)) [2]: 23.3
IFN α2a-induced IRF7 gene expression in whole blood (TAQMAN), sample 175 IFN + R347 (175 IFN 24.65; 175 VEH 1.25) (relative expression (Average)) [2]: 26.3
IFN α2a-induced LY6E gene expression in whole blood (TAQMAN), sample 107 IFN + R347 (107 IFN 19.09; 107 VEH 1.00) (relative expression (Average)) [2]: 12.5
IFN α2a-induced LY6E gene expression in whole blood (TAQMAN), sample 163 IFN + R3437 (163 IFN 13.52; 163 VEH 1.02) (relative expression (Average)) [2]: 22.6
IFN α2a-induced LY6E gene expression in whole blood (TAQMAN), sample 175 IFN + R347 (175 IFN 19.32; 175 VEH 1.61) (relative expression (Average)) [2]: 15.6
IFN α2a-induced MARCKS gene expression in whole blood (TAQMAN), sample 107 IFN + R347 (107 FN 3.97; 107 VEH 1.00) (relative expression (Average)) [2]: 2.99
IFN α2a-induced MARCKS gene expression in whole blood (TAQMAN), sample 163 IFN + R3437 (163 IFN 2.59; 163 VEH 0.56) (relative expression (Average)) [2]: 4.42
IFN α2a-induced MARCKS gene expression in whole blood (TAQMAN), sample 175 IFN + R347 (175 IFN 2.59; 175 VEH 0.41) (relative expression (Average)) [2]: 3.38
IFN α2a-induced RAB8B gene expression in whole blood (TAQMAN), sample 107 IFN + R347 (107 IFN 3.45; 107 VEH 1.0) (relative expression (Average)) [2]: 3.15
IFN α2a-induced RAB8B gene expression in whole blood (TAQMAN), sample 163 IFN + R3437 (163 IFN 2.20; 163 VEH 0.70) (relative expression (Average)) [2]: 3.71
IFN α2a-induced RAB8B gene expression in whole blood (TAQMAN), sample 175 IFN + R347 (175 IFN 2.63; 175 VEH 0.64) (relative expression (Average)) [2]: 2.51
OAS1 gene expression (TAQMAN, Average) in whole blood of donor 107 with 100 IU IFNα2a + R347 control Ab; same donor VEH 1.00, IFN alone 15.11 (relative expression (Average)) [2]: 17.8
OAS1 gene expression (TAQMAN, Average) in whole blood of donor 163 with 100 IU IFNα2a + R347 control Ab; same donor VEH 0.77, IFN alone 14.19 (relative expression (Average)) [2]: 22.4
OAS1 gene expression (TAQMAN, Average) in whole blood of donor 175 with 100 IU IFNα2a + R347 control Ab; same donor VEH 1.62, IFN alone 22.09 (relative expression (Average)) [2]: 15.2
OAS3 gene expression (TAQMAN, Average) in whole blood of donor 107 with 100 IU IFNα2a + R347 control Ab; same donor VEH 1.00, IFN alone 49.04 (relative expression (Average)) [2]: 76.9
OAS3 gene expression (TAQMAN, Average) in whole blood of donor 163 with 100 IU IFNα2a + R347 control Ab; same donor VEH 0.49, IFN alone 42.01 (relative expression (Average)) [2]: 52.6
OAS3 gene expression (TAQMAN, Average) in whole blood of donor 175 with 100 IU IFNα2a + R347 control Ab; same donor VEH 1.27, IFN alone 37.87 (relative expression (Average)) [2]: 34.9
RSAD2 gene expression (TAQMAN, Average) in whole blood of donor 107 with 100 IU IFNα2a + R347 control Ab; same donor VEH 1.00, IFN alone 109.64 (relative expression (Average)) [2]: 107
RSAD2 gene expression (TAQMAN, Average) in whole blood of donor 163 with 100 IU IFNα2a + R347 control Ab; same donor VEH 0.56, IFN alone 71.47 (relative expression (Average)) [2]: 115
RSAD2 gene expression (TAQMAN, Average) in whole blood of donor 175 with 100 IU IFNα2a + R347 control Ab; same donor VEH 1.88, IFN alone 126.27 (relative expression (Average)) [2]: 91
Substance: R347 (antibody)

Source: patent publication US20150147336A1
